We go through 46 sequences from the Immune Epitope Database (IEDB).

Some results are limits rather than exact numbers.

In the first experiment the target is HLA-A*03:01. In words: IEDB peptide-MHC binding, purified MHC/competitive/radioactivity; filed as Kd, often an IC50 or EC50 that approximates it; ≥ and ≤ were set here for values at or beyond the usual limits of such assays. The conditions noted are these: source organism: Lassa virus Josiah.
LTYSQLMTLK: the Kd was 0.0297 µM.

Staying with this experiment, now noted: source organism: Lymphocytic choriomeningitis virus (strain Armstrong).
For DHVSTLLTWH, the Kd is not below 22.4 µM.

Still in this experiment, the particulars now being: source organism: Mammarenavirus machupoense.
As to EKFGHLCKYH, the Kd is not below 70 µM.

Still in this experiment, the particulars now being: source organism: SARS coronavirus Tor2.
As for FFTYLCGFIK, the Kd amounted to 0.44 µM.

For the sequence GFPFNKWGK, the Kd is not below 20.8 µM.

GVTFQGKFKK: the Kd came to 0.761 µM.

NLKQLPFFYY: the Kd is not below 36 µM.

Staying with this experiment, now noted: source organism: Triticum aestivum.
On to NVVHAIILH, for which the Kd was 19.5 µM.

The same experiment, now with this note: source organism: Vaccinia virus Copenhagen.
As for GFTATICLK, the Kd is 1.89 µM.

Regarding ILARRPTPK, the Kd stood at 0.00131 µM.

ILARRPTPKK: the Kd stood at 0.0017 µM.

Staying with this experiment, now noted: source organism: Vaccinia virus WR.
As to DFWRLYNSLK, the Kd stood at 1.65 µM.

Take DIALALEQY: the Kd is not below 78 µM.

On to DLTQIFEVY, for which the Kd worked out at 11.1 µM.

As to DTSASEIKDR, the Kd was determined as 14.8 µM.

Turning to DTSYYVKEY, the Kd is not below 78 µM.

As for EIINDKGKQY, the Kd was not below 70.1 µM.

EMVDELVTR: the Kd is not below 78 µM.

On to EVRIPVDLVK, for which the Kd is not below 64.8 µM.

In the case of FAYVMNIER, the Kd stood at 4.34 µM.

FMVSVSDFR: the Kd was 3.05 µM.

Regarding GAAVTLNRIK, the Kd was determined as 1.75 µM.

In the case of GINNVQSLIK, the Kd was 0.17 µM.

As to GMNDYLGIFK, the Kd is 0.00286 µM.

Take GVIDTMRIY: the Kd turned out to be 1.68 µM.

Consider HLTKTDKKY, for which the Kd is not below 22.9 µM.

With IIDAKNDDWK, the Kd was determined as 6.38 µM.

As to IILANERYR, the Kd was 9.59 µM.

KAGNILFWPY: the Kd amounted to 0.248 µM.

On to KAMLYIIRR, for which the Kd stood at 1.2 µM.

Turning to LFSKNILKY, the Kd is 0.191 µM.

As to LISLNSMYTR, the Kd turned out to be 1.09 µM.

For LLKILDNLR, the Kd is 19.6 µM.

With LLNETAKVIK, the Kd was 1.59 µM.

In the case of LMWNKQFIK, the Kd amounted to 0.00626 µM.

As to LMYALEPRK, the Kd was 0.00559 µM.

LSCAVHLIIY: the Kd is 10.6 µM.

With LVTRKCPQKK, the Kd was not below 70.1 µM.

MSRGYFEHMK: the Kd is 0.0318 µM.

In the case of MSRVRISLIY, the Kd was 0.27 µM.

For MTLDDLAIK, the Kd is 0.927 µM.

MTLVPVLEKK: the Kd worked out at 0.00842 µM.

NMINKLYGY: the Kd amounted to 2.56 µM.

Regarding NVTLFYCDER, the Kd amounted to 6.08 µM.

In the case of PLTSLVITY, the Kd amounted to 13.9 µM.

Take PTKRCRLLK: the Kd was 1.09 µM.

A further experiment deals with HLA-A*11:01. Described as above. Conditions: source organism: Lassa virus Josiah.
For LTYSQLMTLK, the Kd amounted to 0.0115 µM.

Still in this experiment, the particulars now being: source organism: Lymphocytic choriomeningitis virus (strain Armstrong).
As to DHVSTLLTWH, the Kd is not below 69.7 µM.

Staying with this experiment, now noted: source organism: Mammarenavirus machupoense.
For the sequence EKFGHLCKYH, the dissociation constant (Kd) is not below 69.7 µM.

The experiment is the same for the next values; noted with them: source organism: SARS coronavirus Tor2.
Regarding FFTYLCGFIK, the Kd was 0.963 µM.

Regarding GFPFNKWGK, the Kd was determined as 0.655 µM.

For the sequence GVTFQGKFKK, the Kd came to 0.536 µM.

For the sequence NLKQLPFFYY, the Kd was 5.35 µM.

The same experiment, now with this note: source organism: Triticum aestivum.
As to NVVHAIILH, the Kd was not below 42.8 µM.

The same experiment, now with this note: source organism: Vaccinia virus Copenhagen.
For the sequence GFTATICLK, the Kd was determined as 0.0403 µM.

Take ILARRPTPK: the Kd amounted to 0.046 µM.

With ILARRPTPKK, the dissociation constant (Kd) is 0.004 µM.

The same experiment, now with this note: source organism: Vaccinia virus WR.
Regarding DFWRLYNSLK, the Kd came to 1.01 µM.

In the case of DIALALEQY, the Kd is not below 77.9 µM.

For DLTQIFEVY, the Kd came to 0.463 µM.

As to DTSASEIKDR, the Kd was determined as 1.13 µM.

Regarding DTSYYVKEY, the Kd amounted to 14.3 µM.

As to EIINDKGKQY, the Kd is not below 69.8 µM.

Turning to EMVDELVTR, the Kd was not below 40.9 µM.

For the sequence EVRIPVDLVK, the Kd turned out to be 1.66 µM.

As to FAYVMNIER, the Kd came out at 0.0655 µM.

With FMVSVSDFR, the Kd came out at 0.493 µM.

As for GAAVTLNRIK, the Kd was 1.04 µM.

As to GINNVQSLIK, the Kd was determined as 0.0172 µM.

As to GMNDYLGIFK, the Kd is 0.00428 µM.

Regarding GVIDTMRIY, the Kd worked out at 0.0857 µM.

For HLTKTDKKY, the Kd came out at 1.97 µM.

With IIDAKNDDWK, the Kd amounted to 15.9 µM.

With IILANERYR, the Kd is 6.67 µM.

Turning to KAGNILFWPY, the Kd is 0.363 µM.

Take KAMLYIIRR: the Kd was 0.0145 µM.

Regarding LFSKNILKY, the Kd was found to be 5.99 µM.

As to LISLNSMYTR, the Kd turned out to be 0.0228 µM.

As for LLKILDNLR, the Kd worked out at 0.629 µM.

Regarding LLNETAKVIK, the Kd stood at 0.23 µM.

As to LMWNKQFIK, the Kd came out at 0.00257 µM.

For LMYALEPRK, the Kd was 0.0539 µM.

Consider LSCAVHLIIY, for which the Kd was not below 61.4 µM.

On to LVTRKCPQKK, for which the Kd is 15.9 µM.

For the sequence MSRGYFEHMK, the Kd worked out at 0.00724 µM.

With MSRVRISLIY, the Kd amounted to 0.548 µM.

In the case of MTLDDLAIK, the Kd was determined as 0.0371 µM.

MTLVPVLEKK: the Kd is 0.000466 µM.

Turning to NMINKLYGY, the Kd is 18.6 µM.

Take NVTLFYCDER: the Kd came to 2.83 µM.

Turning to PLTSLVITY, the Kd is not below 22.1 µM.

PTKRCRLLK: the Kd is 1.04 µM.

A further experiment has as its target HLA-A*31:01. The description is as above. Conditions: source organism: Lassa virus Josiah.
Turning to LTYSQLMTLK, the Kd was 1.96 µM.

The experiment is the same for the next values; noted with them: source organism: Lymphocytic choriomeningitis virus (strain Armstrong).
For DHVSTLLTWH, the Kd came to 8.61 µM.

Still in this experiment, the particulars now being: source organism: Mammarenavirus machupoense.
For the sequence EKFGHLCKYH, the Kd is not below 70 µM.

Staying with this experiment, now noted: source organism: SARS coronavirus Tor2.
Take FFTYLCGFIK: the Kd stood at 0.612 µM.

In the case of GFPFNKWGK, the Kd was found to be 0.721 µM.

With GVTFQGKFKK, the Kd was 2.84 µM.

Regarding NLKQLPFFYY, the Kd is not below 70 µM.

The experiment is the same for the next values; noted with them: source organism: Triticum aestivum.
As for NVVHAIILH, the Kd stood at 14 µM.

Still in this experiment, the particulars now being: source organism: Vaccinia virus Copenhagen.
On to GFTATICLK, for which the Kd is 1.73 µM.

For the sequence ILARRPTPK, the dissociation constant (Kd) was 1.56 µM.

For ILARRPTPKK, the Kd came out at 18.1 µM.

Still in this experiment, the particulars now being: source organism: Vaccinia virus WR.
Regarding DFWRLYNSLK, the Kd was determined as 2.57 µM.

As for DIALALEQY, the Kd amounted to 10.5 µM.

For DLTQIFEVY, the Kd was found to be 1.37 µM.

Turning to DTSASEIKDR, the Kd is 7.97 µM.

For DTSYYVKEY, the Kd is not below 77.9 µM.

For EIINDKGKQY, the Kd was determined as 12.8 µM.

For the sequence EMVDELVTR, the Kd came to 0.0285 µM.

Regarding EVRIPVDLVK, the Kd is 9.02 µM.

On to FAYVMNIER, for which the Kd was found to be 0.0372 µM.

As for FMVSVSDFR, the Kd turned out to be 0.0672 µM.

As for GAAVTLNRIK, the Kd is not below 40.6 µM.

Take GINNVQSLIK: the Kd was determined as 16.1 µM.
